Common to all, as to assay: cell_activity
One data set concerns E2E-PBD-VP64 (synthetic). As to conditions: +RU486; basal 18259, control 17209.
The test system of another data set is C7LBDAS (synthetic). As to conditions: ligand-dependent, 6x2C7pGL3Luc.
Data set [1] concerns C7LBDAS G400V G400V (human ER numbering) (synthetic). The following applies: ligand-dependent, 6x2C7pGL3Luc.
The next data set relates to 2C7LBDAS (synthetic). The following applies: about; estrogen, 6x2C7 SV40 luc, Cos cells.
The subject of data set [2] is E2C(Sp1)-ERD six-finger repressor (synthetic). As to conditions: approximately; HeLa luciferase.
For data set [3], the system named is E2C-ER//ER-VP64 heterodimer (synthetic). As to conditions: tamoxifen-dependent; maximum at optimised partner ratio.
Data set [4] concerns SID-E2C(Sp1) six-finger repressor (synthetic). As to conditions: approximately; HeLa luciferase.
Data set [5] has as its system E2C(Sp1) six-finger, no effector domain (synthetic). The following applies: approximately; HeLa luciferase, no effector domain.
For data set [6], the system named is E2C-ER//ER-KRAB heterodimer (synthetic). The following applies: tamoxifen-dependent; partner ratio 1/10.

For “GCCGGAGCCATGGGGCCGGAGCC (double strand) [E2E site in erbB-2 promoter reporter]”, the activity (luciferase units) with E2E-PBD-VP64 (synthetic) turned out to be 15900.

As for “GCGTGGGCG (double strand) [C7 site of 6x2C7 luc reporter]”, the activity (fold induction) in the data set on C7LBDAS (synthetic) is 10; in data set [1] it was 420; in the data set on 2C7LBDAS (synthetic) it was 2.

As to “GGGGCCGGAGCCGCAGTG (double strand) [E2C site in erbB-2 promoter reporter]”, the activity worked out at 50 % repression in data set [2], 80 % repression in data set [4] and 30 % repression in [5]. For the same sequence, the activity (fold activation) in data set [3] was 5.3. Besides, in data set [6], the activity (fold repression) was determined as 2.9.

These data come from patent US20030186841.
